# Measurements published in patent US20220396632A1 (VERSEAU THERAPEUTICS, published 2022).
# T1: Recombinant human PSGL-1(ECD)-hFc1 (R&D Systems, Cat. 3345-PS) (human, UniProt Q14242 42-305)
# T1 construct: Bought; Gln42-Val295 counted on AAC50061; also called PSGL-1-Fc; PSGL-1-hFc1 chimera; not shown: human IgG1 Fc, Pro100-Lys330
# T1 sequence: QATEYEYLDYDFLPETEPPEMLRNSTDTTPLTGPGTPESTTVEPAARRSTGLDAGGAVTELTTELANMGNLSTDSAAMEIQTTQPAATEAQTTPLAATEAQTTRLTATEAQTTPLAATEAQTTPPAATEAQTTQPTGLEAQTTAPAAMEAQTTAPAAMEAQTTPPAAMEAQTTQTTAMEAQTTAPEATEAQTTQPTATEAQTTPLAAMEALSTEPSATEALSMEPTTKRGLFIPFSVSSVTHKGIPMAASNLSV
# T2: Biotin Y46,48,51(SO3) PSGL-1(42-62) peptide (human, sulfotyrosine at Y46, Y48 and Y51; C-terminal Lys-biotin)
# T2 construct: also called fully sulfated N-terminal PSGL-1 peptide
# T2 peptide: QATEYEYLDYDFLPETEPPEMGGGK
# T3: Biotin PSGL-1(42-62) peptide, unmodified (human, C-terminal Lys-biotin)
# T3 construct: Residues 42-62 followed by GGGK-biotin; also called WT; wild-type
# T3 peptide: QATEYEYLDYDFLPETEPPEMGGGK
# T4: Biotin PSGL-1(42-62) P55A peptide (C-terminal Lys-biotin)
# T4 peptide: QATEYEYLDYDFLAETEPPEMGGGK
# T5: Biotin PSGL-1(42-62) D52A peptide (C-terminal Lys-biotin)
# T5 peptide: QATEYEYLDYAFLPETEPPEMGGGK
# T6: Biotin sY48 PSGL-1(42-62) peptide (human, sulfotyrosine at Y48; C-terminal Lys-biotin)
# T6 construct: also called sY48S
# T6 peptide: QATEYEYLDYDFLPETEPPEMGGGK
# T7: Biotin sY51 PSGL-1(42-62) peptide (human, sulfotyrosine at Y51; C-terminal Lys-biotin)
# T7 construct: also called Y51(SO3) PSGL-1(42-62)
# T7 peptide: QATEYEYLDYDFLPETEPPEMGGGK
# T8: Biotin sY46 PSGL-1(42-62) peptide (human, sulfotyrosine at Y46; C-terminal Lys-biotin)
# T8 peptide: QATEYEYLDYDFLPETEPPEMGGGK
# T9: Cynomolgus PSGL-1(ECD)-HIS (cynomolgus macaque)
# T9 construct: also called Cyno PSGL1-His
# T9 chain: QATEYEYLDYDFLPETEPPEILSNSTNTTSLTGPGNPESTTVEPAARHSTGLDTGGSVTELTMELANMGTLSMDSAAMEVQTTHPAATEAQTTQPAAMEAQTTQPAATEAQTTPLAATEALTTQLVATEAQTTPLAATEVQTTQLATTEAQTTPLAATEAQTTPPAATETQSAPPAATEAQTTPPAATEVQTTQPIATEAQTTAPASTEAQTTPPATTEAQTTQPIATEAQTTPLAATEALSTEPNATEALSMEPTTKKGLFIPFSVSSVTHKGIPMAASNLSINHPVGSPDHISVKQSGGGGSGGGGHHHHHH
# B1: 9F9 (antibody, V domains shown)
# VH: EVQLVETGGGLVQPKGSLKLSCAASGFTFNTNAMNWVRQAPGKGLEWVARIRSKSNNYATYYADSVKDRFTISRDDTQSMIYLQMNNLKTEDTGMYYCVRGGSYWYFDVWGAGTTVTVSS
# VL: DVLMTQTPLSLPVSLGDQASISCRSSQSIVNSNGNTYLEWYLQKPGQSPKLLIYKVSNRFSGVPDRFSGSGSGTDFTLKISRVEAEDLGVYYCFQGSHVPWTFGGGTKLEIK
# notes: Control anti-PSGL-1 mAb, recombinant; only variable domains given; also called 9F6
# B2: 20I15 (antibody, V domains shown)
# VH: EVKLVESGGGLVQPGGSLSLSCAASGFTFTDYYMSWVRQPPGKALEWLGFIRNKANGYTTEYSASVKGRFTISRDNSQSILYLQMNALRAEDSATYYCARTYLRRGYFDVWGTGTTVTVSS
# VL: DIVLTQSPASLAVSLGQRATISCRASKSVSTSGYSYMHWFQQKPGQPPKLLIYLASNLESGVPARFSGSGSGTDFTLNIHPVEEEDAATYYCQHSRELPLTFGAGTKLELK
# notes: From mouse immunisation; only variable domains given; also called 20115
# B3: 19I01 (antibody, V domains shown)
# VH: EVQLVESGGGLVKPGGSRKLSCAASGFTFSDYGMHWVRQAPEKGLEWVAYISSGSSTIYYADTVKGRFTISRDNAKNTLFLQMTSLRSEDTAMYYCARGVDGYWGQGTTLTVSS
# VL: DVVMTQTPLSLPVSLGDQASISCRSSQSLVHSNGNTYLHWYLQKPGQSPKFLIYKVSNRFSGVPDRFSGSGSGTDFTLKISRVEAEDLGVYFCSQTTHVPLTFGAGTKLELK
# notes: From mouse immunisation; only variable domains given; also called 19101
# B4: 43B6 (antibody, V domains shown)
# VH: EVQLQQSGPDLVKPGALVKISCKASGYSFTAYYIHWVKQSHGKSLEWIGRVNPNTGGTSYNPKFKGKAILNVDKSSSTAYMELRSLTSEDSAVYYCARSGSPYYRYDDWGQGTTLTVSS
# VL: ENVLTQSPAIMSASPGEKVTMTCRASSTVNSTYLHWFQQKSGASPKLWIYGSSNLASGVPARFSGSGSGTSYSLTISSVEAEDAATYYCQQYSGYPLTFGAGTTLELK
# notes: Control anti-PSGL-1 mAb, recombinant; only variable domains given; also called 43B3
# B5: 03D07 (antibody, IgG4, V domains shown)
# VH: EVKLLESGGGLVQPGGSLRLSCAASGFTFSSYALSWVRQAPGKGLEWVSAISGSGGNTYYADSVKGRFTISRDNSKNTLYLQMNSLRAEDTAVYYCAKVVGATNYWGQGTLVTVSS
# VL: DIVMTQTPLSLPVTLGQPASISCRSSQSLVYSDGHTYLSWFHQRPGQSPRRLIYKVSIRDSGVPDRFSGSGSGTDFTLKISRVEAEDVGVYYCMQRLQIPLTFGGGTKVEIK
# B6: 10F01 (antibody, IgG4, V domains shown)
# VH: EVQLVQSGGGLVQPGGSLRLSCAASGFTFSSYAMSWVRQAPGKGLEWVSALRGGDGGTYHADSVKGRFTISGDSSKNTLYLQMNSLRAEDTAVYYCARRMVGAAYAFDIWGQGTMVTVSS
# VL: LPVLTQPHSVSESPGKTVTISCTRSSGSIADNFVQWYRQRPGSAPTTVIYEGDQRPSGVPGRFSGSIDSSSNSASLTISGLQTDDEADYYCQSFDSYNRRTHVVFGGGTKLTVL
# Experiments:
# [1] = target: T1, Recombinant human PSGL-1(ECD)-hFc1 (R&D …); assay: ELISA, plate-bound target
# [2] = target: T2, Biotin Y46,48,51(SO3) PSGL-1(42-62) …; assay: ELISA, plate-bound target
# [3] = target: T3, Biotin PSGL-1(42-62) peptide, unmodified; assay: ELISA, plate-bound target
# [4] = target: T4, Biotin PSGL-1(42-62) P55A peptide; assay: ELISA, streptavidin-bound Ala peptide
# [5] = target: T5, Biotin PSGL-1(42-62) D52A peptide; assay: ELISA, streptavidin-bound Ala peptide
# [6] = target: T2, Biotin Y46,48,51(SO3) PSGL-1(42-62) …; assay: capture ELISA; against 3 x sY peptide
# Experimental: (§1) Two ELISA methods were performed. One procedure detected mAb binding to its plate-immobilized target and the other measured the immobilized antibody's ability to capture biotinylated PSGL-1₄₂₋₆₂. […] The plate was incubated for 45 min at 37° C. Plates were washed 3 times with wash buffer (PBS containing 0.05% tween 20, pH 7.4) and a single concentration (2 to 500 nM) or serially diluted (0.002-100 nM) anti-PSGL-1 mAb was added (25 ul/well) in assay buffer into appropriate wells. The plate was incubated for 45 min at 37° C., washed 3 times, and an appropriate HRP-conjugated secondary antibody added (25 ul/well) (HRP goat anti-mouse or anti-human IgG). After 45 min incubation at 37° C., the plate was washed, and antibody bound to plate-immobilized target was determined at A450 nm using HRP substrate (3,3′,5,5′-etramethylbenzidine (TMB)). For each antibody, duplicate values were averaged and assay background was subtracted. Except for the following, ELISAs involving plate-immobilized mAb capturing of biotinylated PSGL-1₄₂₋₆₂ peptides was performed in the same manner as described above: 3 ug/mL/25 ul per well of mAb was coated directly onto microtiter plate wells; biotinylated unmodified or sulfotyrosine PSGL-1₄₂₋₆₂ was serially diluted (3 nM-3 uM) into appropriate wells, and antibody-bound peptide was detected using HRP-streptavidin (Jackson Immunoresearch, Cat. #016-030-084).
# [7] = target: T6, Biotin sY48 PSGL-1(42-62) peptide; assay: capture ELISA; against 3 x sY peptide
# Experimental: as §1
# [8] = target: T7, Biotin sY51 PSGL-1(42-62) peptide; assay: capture ELISA; against 3 x sY peptide
# Experimental: as §1
# [9] = target: T8, Biotin sY46 PSGL-1(42-62) peptide; assay: capture ELISA; against 3 x sY peptide
# Experimental: as §1
# [10] = target: T9, Cynomolgus PSGL-1(ECD)-HIS; assay: ELISA, plate cyno PSGL-1(ECD)-HIS
# Outline: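 Cyno PSGL-1(ECD) coated overnight at 4 °C, 3 µg/mL in PBS pH 7.4. Anti-PSGL-1 IgG applied at single 20 nM or as 0.003–200 nM curves, 45 min at 37 °C. HRP/TMB read at A450, with duplicates averaged and background subtracted.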
Binder,EC50 [1] [nM],EC50 [2] [nM],EC50 [3] [nM],EC50 [4] [nM],binding result [5],EC50/EC50 3x(SO3)Y [6] [fold],EC50/EC50 3x(SO3)Y [7] [fold],EC50/EC50 3x(SO3)Y [8] [fold],EC50/EC50 3x(SO3)Y [9] [fold],EC50 [10] [nM],EC50 [5] [nM]
B1,0.06,0.05,0.04,> 10,no binding,,,,,,
B2,,,,,,1,~10,~10,~10,,
B3,1.23,0.92,0.92,8.21,,,,,,0.68,3.18
B4,0.05,0.04,0.03,1.8,no binding,,,,,,
B5,,,,,,1,> 100,~5,25,,
B6,,,,,,1,~2000,~36,~2000,,
